Test results taken from patent US9790262B2, “Compositions comprising glucagon analogs and methods of making and using the same” (LONGEVITY BIOTECH, INC., priority 2011, dated 2017).
Non-standard residues stand in square brackets, D forms with d. No end group written: not given here. APC = 3-aminopyrrolidine-4-carboxylic acid (cyclic beta amino acid); ACPC = 2-aminocyclopentanecarboxylic acid (cyclic beta amino acid); Aib = CC(C)(N)C(=O)O

T1: GIP receptor (GIPR) (Homo sapiens, UniProt P48546)
T1 sequence (P48546 22-466): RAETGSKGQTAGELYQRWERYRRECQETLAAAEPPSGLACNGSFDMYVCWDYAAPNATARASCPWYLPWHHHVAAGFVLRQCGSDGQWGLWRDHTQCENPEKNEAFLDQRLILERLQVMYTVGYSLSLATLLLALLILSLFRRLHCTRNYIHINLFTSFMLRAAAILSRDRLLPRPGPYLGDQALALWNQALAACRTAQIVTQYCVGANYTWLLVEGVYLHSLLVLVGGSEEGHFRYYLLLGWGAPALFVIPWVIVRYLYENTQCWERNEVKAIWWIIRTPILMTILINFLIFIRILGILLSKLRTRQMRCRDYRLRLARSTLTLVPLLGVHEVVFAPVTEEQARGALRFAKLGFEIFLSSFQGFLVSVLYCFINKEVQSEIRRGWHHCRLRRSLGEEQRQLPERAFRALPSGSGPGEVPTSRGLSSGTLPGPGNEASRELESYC

T2: GIP receptor (UniProt P48546 22-466, limits assumed)
T2 sequence (looked up): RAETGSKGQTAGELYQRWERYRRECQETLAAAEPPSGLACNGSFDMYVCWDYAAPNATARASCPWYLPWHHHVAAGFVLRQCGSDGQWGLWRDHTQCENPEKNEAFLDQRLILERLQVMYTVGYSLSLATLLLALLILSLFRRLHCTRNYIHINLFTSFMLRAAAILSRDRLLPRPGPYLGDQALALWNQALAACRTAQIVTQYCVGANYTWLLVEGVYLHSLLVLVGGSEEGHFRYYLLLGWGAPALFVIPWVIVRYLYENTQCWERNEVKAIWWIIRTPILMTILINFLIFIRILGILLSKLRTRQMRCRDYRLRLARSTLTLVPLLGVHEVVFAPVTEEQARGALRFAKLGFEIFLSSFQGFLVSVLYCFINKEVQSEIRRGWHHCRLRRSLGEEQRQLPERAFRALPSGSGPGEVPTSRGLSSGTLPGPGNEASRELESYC


Columns and labels:
GIP receptor (GIPR) = target: T1, GIP receptor (GIPR); test: cAMP Hunter agonist assay (DiscoveRx HitHunter cAMP XS+), GIPR cells; assay type: cell-based; conditions: read-out: Max Response
Method: Once it was established that the cells were healthy and growing normally, cells were passaged from flasks using cell dissociation reagent buffer and seeded into white walled clear bottom 384-well microplates for compound profiling. For profiling, cells were seeded at a density of 10,000 cells per well in a total volume of 20 μL and were allowed to adhere and recover overnight prior to compound addition. cAMP modulation was determined using the DiscoveRx HitHunter cAMP XS+ assay.
For profiling compound in agonist mode, the cells were incubated in the presence of compound at 37° C. for 30 minutes. […] After appropriate compound incubation, assay signal was generated through incubation with DiscoverX lysis cocktail according to the manufacturers standard protocol. Dose curves were plotted using GraphPad Prism or Activity Base. Percentage activity is calculated using the following formula: % Activity=100%×(mean RLU of test sample−mean RLU of vehicle control)/(mean RLU of MAX control−mean RLU of vehicle control).

GIP receptor = target: T2, GIP receptor; test: cell-based or functional assay
[1] = Stability in human liver microsomes; conditions: for % of mass remaining in solution: 0.5 mg/mL human liver microsomes, 1 μM, 1 mM NADPH, 37° C.
Method: Human liver microsomes were prepared by Absorption Systems. A reaction mixture, minus NADPH, was prepared as described below. […] In parallel, a […]. The test compound was added into the reaction mixture (0.5 mg/mL human liver microsomes; 100 mM potassium phosphate; 5 mM Magnesium chloride) at a final concentration of 1 μM. An aliquot of the reaction mixture (without cofactor) was incubated in a shaking water bath at 37° C. for 3 minutes. […] The samples were then mixed and centrifuged to precipitate microsomal proteins. […] A thermo BDS Hypersil C18 column (30×2.0 mm; 3 μm) was used for chromatography at 300 μL/minute with an aqueous reservoir of 90% water and 10% buffer and an organic reservoir of 90% acetonitrile with 10% buffer (each 25 mM ammonium formate buffer at pH of 3.5). Test compound samples were analyzed by orbitrap. The peak area response ratio to internal standard (PARR) of the compounds at 10, 20, 30, and 60 minutes was compared to the PARR at time 0 to determine the percent of test compound remaining at each timepoint. After the final time point, fluorimetry is used to confirm the addition of NADPH to the reaction mixture. Half-life was normalized of control using internal acceptance criteria.
The mass spectrometry measurements of compound were taken at 0, 10, 20, 30, and 60 minutes after incubation of the compound with human liver microsomes at […] in solution at 37° C.
Intrinsic clearance (CLint) was calculated based upon CLint=k/P, where k is the elimination rate constant and P is the protein concentration in the incubation.

[2] = Stability in human plasma; assay type: in vitro ADME
Method: Studies of the 2010 peptide were carried out in human plasma. All plasma was obtained from Bioreclamation and collected on sodium heparin. DMSO stocks were first prepared for the test compounds. Aliquots of the DMSO solutions were dosed into 1 mL of plasma, which had been pre-warmed to 37° C., at a final test compound concentration of 1 μM. The vials were kept in a benchtop Thermomixer® for the duration of the experiment. Aliquots (100 μL) were taken at each timepoint (0, 15, 30, 60, and 120 minutes) and added to 96-well plates which had been pre-filled with 300 μL of acetonitrile. Samples were stored at 4° C. until the end of the experiment. After the final timepoint was sampled, the plate was mixed and then centrifuged at 3,000 rpm for 10 minutes. Aliquots of the supernatant were removed, diluted 1:1 into distilled water, and analyzed by LC-MS/MS.
Below is a table of data describing the stability of compounds exposed to human plasma with aliquot of compound dissolved in DMSO solution at 37° C. The pH of the plasma solution was adjusted to 7.4 and single replicants of aliquot were taken at 0, 15, 30, 60 and 120 minutes. LC-MS/MS was used to determine the percent mass of compound remaining in solution (% remaining).

GLP-1 receptor = GLP-1 receptor (UniProt P43220 24-463, limits assumed); test: cell-based or functional assay

Molecule	cAMP agonist: Max Response (GIP receptor)	cAMP agonist: Curve Bottom (GLP-1 receptor)	cAMP agonist: Curve Top (GLP-1 receptor)	cAMP agonist: Max Response (GLP-1 receptor)	cAMP agonist: Curve Bottom (GIP receptor)	cAMP agonist: Curve Top (GIP receptor)	other results
CC[C@H](C)[C@H](NC(=O)[C@H](Cc1ccccc1)NC(=O)[C@H](CCC(=O)O)NC(=O)[C@H](CCCCN)NC(=O)[C@H](C)NC(=O)[C@H](C)NC(=O)[C@H](CCC(N)=O)NC(=O)CNC(=O)[C@H](CCC(=O)O)NC(=O)[C@H](CC(C)C)NC(=O)[C@H](Cc1ccc(O)cc1)NC(=O)[C@H](CO)NC(=O)[C@H](CO)NC(=O)[C@@H](NC(=O)[C@H](CC(=O)O)NC(=O)[C@H](CO)NC(=O)[C@@H](NC(=O)[C@H](Cc1ccccc1)NC(=O)[C@@H](NC(=O)CNC(=O)[C@H](CCC(=O)O)NC(=O)[C@H](C)NC(=O)[C@@H](N)Cc1c[nH]cn1)[C@@H](C)O)[C@@H](C)O)C(C)C)C(=O)N[C@@H](C)C(=O)N[C@@H](Cc1c[nH]c2ccccc12)C(=O)N[C@@H](CC(C)C)C(=O)N[C@H](C(=O)N[C@@H](CCCCN)C(=O)NCC(=O)N[C@@H](CCCNC(=N)N)C(N)=O)C(C)C [GLP1]							Emax (GIP receptor (GIPR)): 2.66%
wild-type GLP-1 (from UniProt P01275 92-128) (ligand)	2.66%						
CC[C@H](C)[C@H](NC(=O)[C@H](CO)NC(=O)[C@H](Cc1ccc(O)cc1)NC(=O)[C@H](CC(=O)O)NC(=O)[C@H](CO)NC(=O)[C@@H](NC(=O)[C@H](Cc1ccccc1)NC(=O)[C@@H](NC(=O)CNC(=O)[C@H](CCC(=O)O)NC(=O)C(C)(C)NC(=O)[C@@H](N)Cc1ccc(O)cc1)[C@@H](C)O)[C@@H](C)O)C(=O)N[C@@H](Cc1ccc(O)cc1)C(=O)N[C@@H](CC(C)C)C(=O)N[C@@H](CC(=O)O)C(=O)N[C@@H](CCCCN)C(=O)N[C@@H](CCC(N)=O)C(=O)N[C@@H](C)C(=O)N[C@@H](C)C(=O)NC(C)(C)C(=O)N[C@@H](CCC(=O)O)C(=O)N[C@@H](Cc1ccccc1)C(=O)N[C@H](C(=O)N[C@@H](CC(N)=O)C(=O)N[C@@H](Cc1c[nH]c2ccccc12)C(=O)N[C@@H](CC(C)C)C(=O)N[C@@H](CC(C)C)C(=O)N[C@@H](C)C(=O)NCC(N)=O)C(C)C [compound 2000, YBEGT FTSDY SIYLD KQAAB EFVNW LLAG]							% of mass remaining in solution ([1]; 0 mins.): 100%; half-life ([1]; human, microsomes): 58 min; microsomal CLint ([1]; human, microsomes): 24 µL/min/mg; remaining at 10 min, 1 μM ([1]; human, microsomes): 95%; remaining at 20 min, 1 μM ([1]; human, microsomes): 78%; remaining at 0.5 h, 1 μM ([1]; human, microsomes): 72%; remaining at 1 h, 1 μM ([1]; human, microsomes): 50%; % of mass remaining in solution ([2]; 0 mins., 1 μM, 37° C., pH 7.4): 100%; remaining at 0.25 h, 1 μM ([2]; plasma (sodium heparin), 15 mins., 1 μM, 37° C., pH 7.4, read-out: % of mass remaining in solution): 101%; remaining at 0.5 h, 1 μM ([2]; plasma (sodium heparin), 30 mins., 1 μM, 37° C., pH 7.4, read-out: % of mass remaining in solution): 99%; remaining at 1 h, 1 μM ([2]; plasma (sodium heparin), 60 mins., 1 μM, 37° C., pH 7.4, read-out: % of mass remaining in solution): 95%; remaining at 2 h, 1 μM ([2]; plasma (sodium heparin), 120 mins., 1 μM, 37° C., pH 7.4, read-out: % of mass remaining in solution): 98%; half-life ([2]; read-out: serum-half lives): > 120 min
C[C@]12CC[C@H]3[C@@H](CCC4=CC(=O)CC[C@@]43C)[C@@H]1CC[C@@H]2O [Testosterone, testosterone]							% of mass remaining in solution ([1]; 0 mins.): 100%; % of mass remaining in solution ([1]; 60 mins.): 4.8%; remaining at 10 min, 1 μM ([1]; human, microsomes): 53%; remaining at 0.5 h, 1 μM ([1]; human, microsomes): 13%
Y[Aib]EGTFTSDYSIYLDK[ACPC]AA[Aib][ACPC]FV[APC]WLL[ACPC]G [2010]	96.9%	0.4%	82.4%	82.1%	-0.3%	85.5%	
Y[Aib]EGTFTSDYSIYLD[APC]QA[ACPC][Aib]EF[ACPC]NW[ACPC]LAG [2008]	82.2%	0.9%	84.4%	84.5%	-0.6%	82.8%	
YXEGTFTSDYSXYLDXQAXXEFXNWXLAG (B = alpha-aminoisobutyric acid (Aib) at positions 2 and 20; alpha-to-beta3 amino acid replacement(s) at the bold and underlined position(s) of the printed sequence, which this text does not show) [2001]	16.5%			36.7%			cAMP agonist EC50 (RC50 (uM)) (GLP-1 receptor): > 1 µM; cAMP agonist EC50 (RC50 (uM)) (GIP receptor): > 1 µM
YXEGTFTSDYSIYXDKXAAXXFVXWLLXG (B = alpha-aminoisobutyric acid (Aib) at positions 2 and 20; alpha-to-beta3 amino acid replacement(s) at the bold and underlined position(s) of the printed sequence, which this text does not show) [2005]	99.2%	1.3%	91.1%	95.7%	-2.6%	96.3%	
YXEGTFTSDYSXYLXKQAXXEXVNWXLAX (B = alpha-aminoisobutyric acid (Aib) at positions 2 and 20; alpha-to-beta3 amino acid replacement(s) at the bold and underlined position(s) of the printed sequence, which this text does not show) [2004]	99.1%			2.68%	-0.8%	99.1%	cAMP agonist EC50 (RC50 (uM)) (GLP-1 receptor): > 1 µM
